In publication PMC10121563 (2023):

Biological target: T1, GST::OsABI5 fusion protein (Oryza sativa subsp. japonica (Rice), UniProt Q8RZ35)
T1 chain: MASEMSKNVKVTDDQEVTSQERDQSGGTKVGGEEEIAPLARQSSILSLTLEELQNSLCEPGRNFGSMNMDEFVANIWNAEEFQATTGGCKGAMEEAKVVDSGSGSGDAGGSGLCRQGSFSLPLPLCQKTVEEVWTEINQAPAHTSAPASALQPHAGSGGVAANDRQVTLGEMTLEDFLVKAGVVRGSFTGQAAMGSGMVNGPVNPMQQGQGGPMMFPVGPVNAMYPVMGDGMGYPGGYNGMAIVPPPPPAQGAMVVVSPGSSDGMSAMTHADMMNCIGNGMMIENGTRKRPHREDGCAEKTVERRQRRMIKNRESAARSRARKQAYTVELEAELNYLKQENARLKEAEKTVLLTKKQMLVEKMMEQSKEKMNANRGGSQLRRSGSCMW
Experiment: GST pull-down

| binding result | Binder |
| --- | --- |
| binds | MBP::OsJAZ7 fusion protein (protein) MAASARPVGVGGERATSFAMACSLLSRYVRQNGAAAAELGLGIRGEGEAPRAAPATMSLLPGEAERKKETMELFPQSAGFGQQDAITADSAADAREQEPEKRQLTIFYGGKVLVFNDFPADKAKGLMQLASKGSPVAPQNAAAPAPAAVTDNTKAPMAVPAPVSSLPTAQADAQKPARANASDMPIARKASLHRFLEKRKDRLNAKTPYQASPSDATPVKKEPESQPWLGLGPNAVVKPIERGQ |
| binds | MBP::OsJAZ6 fusion protein (protein) MASAKSGERGSSSFAMACSLLSRYVRQNGAAAGELGLGIRGEADANKGKETMELFPQNSGFGSEAAAVKETPDAREQEKRQLTIFYGGKVLVFDDFPAEKAKDLMQMASKSSSTAQNCVLLPSSATATVADNTKVSAVPAPASALPVAQANAPKPVRPNAADLPQARKASLHRFLEKRKDRLQAKAPYQGSPSDASPVKKELQESQPWLGLGPQVAAPDLSLRQESSQ |
